Experimental data as given in PMC4334965, “Molecular Bases of Catalysis and ADP-Ribose Preference of Human Mn^2+-Dependent ADP-Ribose/CDP-Alcohol Diphosphatase and Conversion by Mutagenesis to a Preferential Cyclic ADP-Ribose Phosphohydrolase” (PLoS ONE, 2015).

Experiments:
Assay type in all cases: biochemical, Homo sapiens
Settings in all cases: 5 mM MnCl2, pH 7.5, 37°C
[1] = substrate: C[N+](C)(C)CCOP(=O)(O)OP(=O)([O-])OC[C@H]1O[C@@H](n2ccc(N)nc2=O)[C@H](O)[C@@H]1O; assay: colorimetric Pi assay coupled to alkaline phosphatase, saturation kinetics
Source text: (§1) colorimetric Pi assay coupled to alkaline phosphatase, saturation kinetics on human ADPRibase-Mn

[2] = substrate: N=c1c2ncn3c2ncn1[C@@H]1O[C@H](COP(=O)(O)OP(=O)(O)OC[C@H]2O[C@@H]3[C@H](O)[C@@H]2O)[C@@H](O)[C@H]1O; assay: HPLC of N1-(5-phosphoribosyl)-AMP formed, saturation kinetics
Source text: HPLC of N1-(5-phosphoribosyl)-AMP formed, saturation kinetics on human ADPRibase-Mn

[3] = substrate: Nc1ncnc2c1ncn2[C@@H]1O[C@H](CO)[C@H]2OP(=O)(O)O[C@H]21; assay: colorimetric Pi assay coupled to alkaline phosphatase, saturation kinetics
Source text: as §1

Protein	Km [1]	kcat [1]	kcat/Km [1]	Km [2]	kcat [2]	kcat/Km [2]	Km [3]	kcat [3]	kcat/Km [3]
human ADPRibase-Mn (Homo sapiens; H111A) (protein, full length, 342 aa; expressed as GST fusion (pGEX-6P-3), GST cut off with PreScission protease, 11-aa N-terminal extension …) MDDKPNPEALSDSSERLFSFGVIADVQFADLEDGFNFQGTRRRYYRHSLLHLQGAIEDWNNESSMPCCVLQLGDIIDGYNAQYNASKKSLELVMDMFKRLKVPVHHTWGNAEFYNFSREYLTHSKLNTKFLEDQIVHHPETMPSEDYYAYHFVPFPKFRFILLDAYDLSVLGVDQSSPKYEQCMKILREHNPNTELNSPQGLSEPQFVQFNGGFSQEQLNWLNEVLTFSDTNQEKVVIVSHLPIYPDASDNVCLAWNYRDALAVIWSHECVVCFFAGHTHDGGYSEDPFGVYHVNLEGVIETAPDSQAFGTVHVYPDKMMLKGRGRVPDRIMNYKKERAFHC	7500 ± 700 µM	2.2 ± 0.2 s⁻¹	300 ± 30 M⁻¹ s⁻¹	–	–	–	–	–	–
human ADPRibase-Mn (Homo sapiens; Q27H) (protein, full length, 342 aa; expressed as GST fusion (pGEX-6P-3), GST cut off with PreScission protease, 11-aa N-terminal extension …) MDDKPNPEALSDSSERLFSFGVIADVHFADLEDGFNFQGTRRRYYRHSLLHLQGAIEDWNNESSMPCCVLQLGDIIDGYNAQYNASKKSLELVMDMFKRLKVPVHHTWGNHEFYNFSREYLTHSKLNTKFLEDQIVHHPETMPSEDYYAYHFVPFPKFRFILLDAYDLSVLGVDQSSPKYEQCMKILREHNPNTELNSPQGLSEPQFVQFNGGFSQEQLNWLNEVLTFSDTNQEKVVIVSHLPIYPDASDNVCLAWNYRDALAVIWSHECVVCFFAGHTHDGGYSEDPFGVYHVNLEGVIETAPDSQAFGTVHVYPDKMMLKGRGRVPDRIMNYKKERAFHC	2700 ± 200 µM	39 ± 12 s⁻¹	14000 ± 3000 M⁻¹ s⁻¹	–	–	–	–	–	–
human ADPRibase-Mn (Homo sapiens; C253A) (protein, full length, 342 aa; expressed as GST fusion (pGEX-6P-3), GST cut off with PreScission protease, 11-aa N-terminal extension …) MDDKPNPEALSDSSERLFSFGVIADVQFADLEDGFNFQGTRRRYYRHSLLHLQGAIEDWNNESSMPCCVLQLGDIIDGYNAQYNASKKSLELVMDMFKRLKVPVHHTWGNHEFYNFSREYLTHSKLNTKFLEDQIVHHPETMPSEDYYAYHFVPFPKFRFILLDAYDLSVLGVDQSSPKYEQCMKILREHNPNTELNSPQGLSEPQFVQFNGGFSQEQLNWLNEVLTFSDTNQEKVVIVSHLPIYPDASDNVALAWNYRDALAVIWSHECVVCFFAGHTHDGGYSEDPFGVYHVNLEGVIETAPDSQAFGTVHVYPDKMMLKGRGRVPDRIMNYKKERAFHC	–	–	–	200 ± 40 µM	8.9 ± 0.8 s⁻¹	44000 ± 9000 M⁻¹ s⁻¹	–	–	–
human ADPRibase-Mn (Homo sapiens; C253A/F37A/L196F) (protein, full length, 342 aa; expressed as GST fusion (pGEX-6P-3), GST cut off with PreScission protease, 11-aa N-terminal extension …) MDDKPNPEALSDSSERLFSFGVIADVQFADLEDGFNAQGTRRRYYRHSLLHLQGAIEDWNNESSMPCCVLQLGDIIDGYNAQYNASKKSLELVMDMFKRLKVPVHHTWGNHEFYNFSREYLTHSKLNTKFLEDQIVHHPETMPSEDYYAYHFVPFPKFRFILLDAYDLSVLGVDQSSPKYEQCMKILREHNPNTEFNSPQGLSEPQFVQFNGGFSQEQLNWLNEVLTFSDTNQEKVVIVSHLPIYPDASDNVALAWNYRDALAVIWSHECVVCFFAGHTHDGGYSEDPFGVYHVNLEGVIETAPDSQAFGTVHVYPDKMMLKGRGRVPDRIMNYKKERAFHC	–	–	–	460 ± 120 µM	16 ± 3 s⁻¹	35500 ± 4300 M⁻¹ s⁻¹	–	–	–
human ADPRibase-Mn (Homo sapiens) (protein, full length, 342 aa; expressed as GST fusion (pGEX-6P-3), GST cut off with PreScission protease, 11-aa N-terminal extension …) MDDKPNPEALSDSSERLFSFGVIADVQFADLEDGFNFQGTRRRYYRHSLLHLQGAIEDWNNESSMPCCVLQLGDIIDGYNAQYNASKKSLELVMDMFKRLKVPVHHTWGNHEFYNFSREYLTHSKLNTKFLEDQIVHHPETMPSEDYYAYHFVPFPKFRFILLDAYDLSVLGVDQSSPKYEQCMKILREHNPNTELNSPQGLSEPQFVQFNGGFSQEQLNWLNEVLTFSDTNQEKVVIVSHLPIYPDASDNVCLAWNYRDALAVIWSHECVVCFFAGHTHDGGYSEDPFGVYHVNLEGVIETAPDSQAFGTVHVYPDKMMLKGRGRVPDRIMNYKKERAFHC	350 ± 60 µM	50 ± 4 s⁻¹	150000 ± 30000 M⁻¹ s⁻¹	780 ± 200 µM	3.2 ± 0.2 s⁻¹	4000 ± 1000 M⁻¹ s⁻¹	2400 ± 300 µM	60 ± 13 s⁻¹	25000 ± 6000 M⁻¹ s⁻¹
human ADPRibase-Mn (Homo sapiens; F210A) (protein, full length, 342 aa; expressed as GST fusion (pGEX-6P-3), GST cut off with PreScission protease, 11-aa N-terminal extension …) MDDKPNPEALSDSSERLFSFGVIADVQFADLEDGFNFQGTRRRYYRHSLLHLQGAIEDWNNESSMPCCVLQLGDIIDGYNAQYNASKKSLELVMDMFKRLKVPVHHTWGNHEFYNFSREYLTHSKLNTKFLEDQIVHHPETMPSEDYYAYHFVPFPKFRFILLDAYDLSVLGVDQSSPKYEQCMKILREHNPNTELNSPQGLSEPQFVQANGGFSQEQLNWLNEVLTFSDTNQEKVVIVSHLPIYPDASDNVCLAWNYRDALAVIWSHECVVCFFAGHTHDGGYSEDPFGVYHVNLEGVIETAPDSQAFGTVHVYPDKMMLKGRGRVPDRIMNYKKERAFHC	11000 ± 2600 µM	50 ± 12 s⁻¹	4000 ± 100 M⁻¹ s⁻¹	–	–	–	–	–	–
